According to patent publication US20220024981A1 (Novartis, published 2022):
Bridge positions count the residues as written; N and C are the ends. Square brackets hold non-standard residues; d marks the D form. Bip = N[C@@H](Cc1ccc(-c2ccccc2)cc1)C(=O)O; Phe(4-Cl) = N[C@@H](Cc1ccc(Cl)cc1)C(=O)O; NMeE = CN[C@@H](CCC(=O)O)C(=O)O; hSer = N[C@@H](CCO)C(=O)O; NMeA = CN[C@@H](C)C(=O)O

B1: Ac*-F-V-N-T-T-F-(N-Me)A-B-(N-Me)A-(N-Me)E-A-P-C*-NHEt (peptide)
peptide: {CH2CO}-FVNTTF[NMeA][Bip][NMeA][NMeE]APC-NHEt
modifications: thioether N-13
SMILES: CCNC(=O)[C@@H]1CSCC(=O)N[C@@H](Cc2ccccc2)C(=O)N[C@@H](C(C)C)C(=O)N[C@@H](CC(N)=O)C(=O)N[C@@H]([C@@H](C)O)C(=O)N[C@@H]([C@@H](C)O)C(=O)N[C@@H](Cc2ccccc2)C(=O)N(C)[C@@H](C)C(=O)N[C@@H](Cc2ccc(-c3ccccc3)cc2)C(=O)N(C)[C@@H](C)C(=O)N(C)[C@@H](CCC(=O)O)C(=O)N[C@@H](C)C(=O)N2CCC[C@H]2C(=O)N1
notes: also called 3-1; Ex. No. 3-1
B2: Ac*-F-V-P-T-T-F-(N-Me)A-(p-Cl)F-(N-Me)A-D-A-P-C*-NH2 (peptide)
peptide: {CH2CO}-FVPTTF[NMeA][Phe(4-Cl)][NMeA]DAPC-NH2
modifications: thioether N-13
SMILES: CC(C)[C@@H]1NC(=O)[C@H](Cc2ccccc2)NC(=O)CSC[C@@H](C(N)=O)NC(=O)[C@@H]2CCCN2C(=O)[C@H](C)NC(=O)[C@H](CC(=O)O)NC(=O)[C@H](C)N(C)C(=O)[C@H](Cc2ccc(Cl)cc2)NC(=O)[C@H](C)N(C)C(=O)[C@H](Cc2ccccc2)NC(=O)[C@H]([C@@H](C)O)NC(=O)[C@H]([C@@H](C)O)NC(=O)[C@@H]2CCCN2C1=O
notes: also called 2-2; Ex. No. 2-2
B3: Ac*-F-V-P-T-T-F-(N-Me)A-(p-Cl)F-(N-Me)A-P-A-P-C*-NH2 (peptide)
peptide: {CH2CO}-FVPTTF[NMeA][Phe(4-Cl)][NMeA]PAPC-NH2
modifications: thioether N-13
SMILES: CC(C)[C@@H]1NC(=O)[C@H](Cc2ccccc2)NC(=O)CSC[C@@H](C(N)=O)NC(=O)[C@@H]2CCCN2C(=O)[C@H](C)NC(=O)[C@@H]2CCCN2C(=O)[C@H](C)N(C)C(=O)[C@H](Cc2ccc(Cl)cc2)NC(=O)[C@H](C)N(C)C(=O)[C@H](Cc2ccccc2)NC(=O)[C@H]([C@@H](C)O)NC(=O)[C@H]([C@@H](C)O)NC(=O)[C@@H]2CCCN2C1=O
notes: also called 2-1; Ex. No. 2-1
B4: Ac*-F-V-P-T-T-V-(N-Me)A-(p-Cl)F-(N-Me)A-E-A-P-C*-NH2 (peptide)
peptide: {CH2CO}-FVPTTV[NMeA][Phe(4-Cl)][NMeA]EAPC-NH2
modifications: thioether N-13
SMILES: CC(C)[C@@H]1NC(=O)[C@H]([C@@H](C)O)NC(=O)[C@H]([C@@H](C)O)NC(=O)[C@@H]2CCCN2C(=O)[C@H](C(C)C)NC(=O)[C@H](Cc2ccccc2)NC(=O)CSC[C@@H](C(N)=O)NC(=O)[C@@H]2CCCN2C(=O)[C@H](C)NC(=O)[C@H](CCC(=O)O)NC(=O)[C@H](C)N(C)C(=O)[C@H](Cc2ccc(Cl)cc2)NC(=O)[C@H](C)N(C)C1=O
notes: also called 2-6; Ex. No. 2-6
B5: Ac*-F-V-HomoSer-T-T-F-(N-Me)A-(p-Cl)F-(N-Me)A-D-A-P-C*-NH2 (peptide)
peptide: {CH2CO}-FV[hSer]TTF[NMeA][Phe(4-Cl)][NMeA]DAPC-NH2
modifications: thioether N-13
SMILES: CC(C)[C@@H]1NC(=O)[C@H](Cc2ccccc2)NC(=O)CSC[C@@H](C(N)=O)NC(=O)[C@@H]2CCCN2C(=O)[C@H](C)NC(=O)[C@H](CC(=O)O)NC(=O)[C@H](C)N(C)C(=O)[C@H](Cc2ccc(Cl)cc2)NC(=O)[C@H](C)N(C)C(=O)[C@H](Cc2ccccc2)NC(=O)[C@H]([C@@H](C)O)NC(=O)[C@H]([C@@H](C)O)NC(=O)[C@H](CCO)NC1=O
notes: also called 2-3; Ex. No. 2-3
B6: Ac*-F-V-S-T-T-B-(N-Me)A-B-(N-Me)A-D-R-P-C*-NH2 (peptide)
peptide: {CH2CO}-FVSTT[Bip][NMeA][Bip][NMeA]DRPC-NH2
modifications: thioether N-13
SMILES: CC(C)[C@@H]1NC(=O)[C@H](Cc2ccccc2)NC(=O)CSC[C@@H](C(N)=O)NC(=O)[C@@H]2CCCN2C(=O)[C@H](CCCNC(=N)N)NC(=O)[C@H](CC(=O)O)NC(=O)[C@H](C)N(C)C(=O)[C@H](Cc2ccc(-c3ccccc3)cc2)NC(=O)[C@H](C)N(C)C(=O)[C@H](Cc2ccc(-c3ccccc3)cc2)NC(=O)[C@H]([C@@H](C)O)NC(=O)[C@H]([C@@H](C)O)NC(=O)[C@H](CO)NC1=O
notes: also called 2-4; Ex. No. 2-4
B7: Ac*-F-V-A-T-T-F-(N-Me)A-(p-Cl)F-(N-Me)A-N-A-P-C*-NH2 (peptide)
peptide: {CH2CO}-FVATTF[NMeA][Phe(4-Cl)][NMeA]NAPC-NH2
modifications: thioether N-13
SMILES: CC(C)[C@@H]1NC(=O)[C@H](Cc2ccccc2)NC(=O)CSC[C@@H](C(N)=O)NC(=O)[C@@H]2CCCN2C(=O)[C@H](C)NC(=O)[C@H](CC(N)=O)NC(=O)[C@H](C)N(C)C(=O)[C@H](Cc2ccc(Cl)cc2)NC(=O)[C@H](C)N(C)C(=O)[C@H](Cc2ccccc2)NC(=O)[C@H]([C@@H](C)O)NC(=O)[C@H]([C@@H](C)O)NC(=O)[C@H](C)NC1=O
notes: also called 2-5; Ex. No. 2-5
B8: Ac*-F-V-P-T-T-B-(N-Me)A-B-(N-Me)A-A-A-P-C*-NHEt (peptide)
peptide: {CH2CO}-FVPTT[Bip][NMeA][Bip][NMeA]AAPC-NHEt
modifications: thioether N-13
SMILES: CCNC(=O)[C@@H]1CSCC(=O)N[C@@H](Cc2ccccc2)C(=O)N[C@@H](C(C)C)C(=O)N2CCC[C@H]2C(=O)N[C@@H]([C@@H](C)O)C(=O)N[C@@H]([C@@H](C)O)C(=O)N[C@@H](Cc2ccc(-c3ccccc3)cc2)C(=O)N(C)[C@@H](C)C(=O)N[C@@H](Cc2ccc(-c3ccccc3)cc2)C(=O)N(C)[C@@H](C)C(=O)N[C@@H](C)C(=O)N[C@@H](C)C(=O)N2CCC[C@H]2C(=O)N1
notes: also called 3-4; Ex. No. 3-4

Molecular target: T1, Human PCSK9 Alexa Fluor 647 (human, UniProt Q8NBP7 31-692, limits assumed, Alexa Fluor 647 label (site not stated))
T1 construct: Labelled tracer of the TR-FRET assay, 16 nM stock; also called proprotein convertase subtilisin/kexin type 9
T1 sequence (Q8NBP7 31-692 limits assumed): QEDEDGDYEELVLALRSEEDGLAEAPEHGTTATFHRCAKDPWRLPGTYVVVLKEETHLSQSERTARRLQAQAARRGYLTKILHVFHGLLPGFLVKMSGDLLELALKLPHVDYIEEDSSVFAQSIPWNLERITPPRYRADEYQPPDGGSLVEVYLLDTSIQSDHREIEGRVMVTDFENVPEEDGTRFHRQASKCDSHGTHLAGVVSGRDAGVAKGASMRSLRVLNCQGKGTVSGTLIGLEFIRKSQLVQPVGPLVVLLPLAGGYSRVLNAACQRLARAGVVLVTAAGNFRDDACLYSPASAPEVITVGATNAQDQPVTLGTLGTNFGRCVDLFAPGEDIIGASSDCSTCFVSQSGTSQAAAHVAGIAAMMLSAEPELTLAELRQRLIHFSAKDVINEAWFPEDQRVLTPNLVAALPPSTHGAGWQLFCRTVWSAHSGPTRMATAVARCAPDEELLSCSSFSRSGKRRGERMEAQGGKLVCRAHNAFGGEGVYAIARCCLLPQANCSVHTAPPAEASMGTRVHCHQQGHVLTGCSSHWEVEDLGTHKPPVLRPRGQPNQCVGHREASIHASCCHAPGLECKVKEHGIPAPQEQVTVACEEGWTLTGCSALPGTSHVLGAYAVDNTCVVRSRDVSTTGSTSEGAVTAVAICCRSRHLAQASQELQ
Test: TR-FRET competition: PCSK9-Alexa Fluor 647 vs LDLR ECD-Eu kryptate
Description: A Proxi plate-low volume assay plate was used for the assay. […] Following a 30 minute incubation, 5 uL of 4 nM Human LDLR extracellular domain-Europium Kryptate was added and the mixture was incubated for an additional 2 hours.
The TR-FRET signal was measured on an EnVision or PheraStar instrument with a 60 μs delay, 330 nm excitation and 665 nm emission (FRET), and 330 nm excitation and 615 nm (Europium). The FRET ratio (FRET/Europium) was used for calculations.

| Binder | IC50 [nM] | Maximum % inhibition [%] |
| --- | --- | --- |
| B1 | 85 | 61 |
| B2 | 0.4 | 72 |
| B3 | 11.5 | 50 |
| B4 | 5.4 | 83 |
| B5 | 0.04 | 75 |
| B6 | 1.8 | 28 |
| B7 | 1.1 | 46 |
| {CH2CO}-FVPTT[Bip][NMeA][Bip][NMeA]EAPC-NHEt (thioether N-13, also called 3-3; Ex. No. 3-3) [Ac*-F-V-P-T-T-B-(N-Me)A-B-(N-Me)A-E-A-P-C*-NHEt] | 2.2 |  |
| B8 | 1.4 | 49 |
